The text below walks through data of paper PMC9292375, “Structural basis of an epitope tagging system derived from Haloarcula marismortui bacteriorhodopsin I D94N and its monoclonal antibody GD‐26” (The Febs Journal, 2021).

What is called Kd is the constant that tells how readily two partners part at equilibrium. One may read the stoichiometry N as a count of units in the complex or per binding partner.

Assay in all cases: ITC; synthetic peptide in the syringe titrated into GD-26 Fab or GD-26 IgG (10 μM) in the cell; 25 °C; 50 mM Tris, 150 mM NaCl, pH 7.5; one-set-of-sites model
Holding throughout (conditions): both partners purified
(Isothermal titration calorimetry measures the heat released or taken up as one component is titrated into another.)

Test [1] deals with T1, TD peptide (GTGATPADD), peptide V from the C terminus of HmBRI D94N (Haloarcula marismortui HmBRI C terminus …).
T1 construct: nine residues at the C terminus of Haloarcula marismortui bacteriorhodopsin I (HmBRI); residue numbers 1-9 count on: the TD peptide; also called TD tag; wild-type TD peptide; source: synthetic peptide
T1 chain: GTGATPADD

Test [2] concerns the target T2, TD peptide C1 (Asp9 removed) (Haloarcula marismortui (strain ATCC …)).
T2 construct: TD peptide residues 1-8 (Asp9 removed); numbers count on: the TD peptide; source: synthetic peptide
T2 chain: GTGATPAD

A further test concerns the target T3, TD peptide G1M (G1M (stands in the printed letters)).
T3 construct: TD peptide (C terminus of HmBRI) with G1M; numbers count on: the TD peptide; source: synthetic peptide
T3 chain: MTGATPADD

For a further test, the target named is T4, TD peptide A7H (A7H (stands in the printed letters)).
T4 construct: TD peptide (C terminus of HmBRI) with A7H; numbers count on: the TD peptide; source: synthetic peptide
T4 chain: GTGATPHDD

The target in the next test is T5, TD peptide A7E (A7E (stands in the printed letters)).
T5 construct: TD peptide (C terminus of HmBRI) with A7E; numbers count on: the TD peptide; source: synthetic peptide
T5 chain: GTGATPEDD

In a further test the target is T6, TD peptide A7P (A7P (stands in the printed letters)).
T6 construct: TD peptide (C terminus of HmBRI) with A7P; numbers count on: the TD peptide; source: synthetic peptide
T6 chain: GTGATPPDD

For a further test, the target named is T7, TD peptide P6A (P6A (stands in the printed letters)).
T7 construct: TD peptide (C terminus of HmBRI) with P6A; numbers count on: the TD peptide; source: synthetic peptide
T7 chain: GTGATAADD

The next test concerns the target T8, TD peptide A7R (A7R (stands in the printed letters)).
T8 construct: TD peptide (C terminus of HmBRI) with A7R; numbers count on: the TD peptide; source: synthetic peptide
T8 chain: GTGATPRDD

The target of another test is T9, TD peptide A7W (A7W (stands in the printed letters)).
T9 construct: TD peptide (C terminus of HmBRI) with A7W; numbers count on: the TD peptide; source: synthetic peptide
T9 chain: GTGATPWDD

Test [3] addresses T10, TD peptide C2 (Asp8 and Asp9 removed) (Haloarcula marismortui (strain ATCC …)).
T10 construct: TD peptide residues 1-7 (Asp8 and Asp9 removed); numbers count on: the TD peptide; source: synthetic peptide
T10 chain: GTGATPA

The target in a further test is T11, TD peptide A7Y (A7Y (stands in the printed letters)).
T11 construct: TD peptide (C terminus of HmBRI) with A7Y; numbers count on: the TD peptide; source: synthetic peptide
T11 chain: GTGATPYDD

A further test addresses T12, TD peptide A7S (A7S (stands in the printed letters)).
T12 construct: TD peptide (C terminus of HmBRI) with A7S; numbers count on: the TD peptide; source: synthetic peptide
T12 chain: GTGATPSDD

The target in test [4] is T13, TD peptide N4 (Gly1 to Ala4 deleted) (Haloarcula marismortui (strain ATCC …)).
T13 construct: TD peptide residues 5-9 (Gly1, Thr2, Gly3 and Ala4 deleted); numbers count on: the TD peptide; source: synthetic peptide
T13 chain: TPADD

Test [5] has as its target T14, TD peptide N2 (Gly1 and Thr2 deleted) (Haloarcula marismortui (strain ATCC …)).
T14 construct: TD peptide residues 3-9 (Gly1 and Thr2 deleted); numbers count on: the TD peptide; source: synthetic peptide
T14 chain: GATPADD

Where “and” joins values, the source holds several entries; their conditions need not be identical. Equal entries are not always repeated.

B1: GD-26 Fab (antigen-binding fragment of monoclonal antibody GD-26) (Fab, V domains shown)
VH: QVQLRQSGPELVKPGASVKMSCRASGYTFTNYNIHWVRQRPGQGLEWIGWIYPVDGTTKYNEKFKDKTTLTSDKSSSTAYMSLSGLTSEDSAIYFCARGLDNWGQGTSVTVSS
VL: DVVLTQTPLSLSVTIGQPASISCRSSQRLLYSNGKTYLNWFQQRPGQAPKYLMFQVSKLGPGIPARFSGSGSETDFTLKISRVEAEDLGVYYCFQGTFFPHTFGGGTKLEMK
notes: Fab heavy chain of GD-26; whole chain in PDB 7DOH; light chain of GD-26; the Fab was secreted; source: Expi293F, transient co-transfection, secreted; purified (HisTrap Excel, Superdex 200 gel filtration)
As to B1, the Kd in test [1] is 19.8 nM and 19.4 nM; in test [2] it was 273 nM; with TD peptide G1M it was 46.5 nM; with TD peptide A7H, 94 nM; with TD peptide A7E it was 46.4 nM; with TD peptide A7P, 1040 nM. For the same molecule, the Kd in the test with TD peptide P6A worked out at 140 nM; with TD peptide A7R it was 171 nM; with TD peptide A7W it was 34.4 nM; with TD peptide A7Y it was 73.4 nM; with TD peptide A7S, 72.7 nM; in test [5] it was 548 nM. Further, the dH in [1] is -13.4 kcal/mol. Besides, in [1], the “stoichiometry N” value is 0.93 sites. Further, the binding result in test [3] and in test [4] was “no binding” in each case.
